Source: patent publication US20240287161A1 (NATIONAL UNIVERSITY CORPORATION TOTTORI UNIVERSITY, published 2024)

Tests used:
[1] = target: T1, HCoV-229E trimeric S protein (amino acids 12-1109) with T4 foldon, histidine tag and strep-tag (HCoV-229E, UniProt P15423 12-1112); assay: ELISA on coated S-trimeric antigen, anti-human IgG-HRP [Human IgG1, NT-108]
T1 chain: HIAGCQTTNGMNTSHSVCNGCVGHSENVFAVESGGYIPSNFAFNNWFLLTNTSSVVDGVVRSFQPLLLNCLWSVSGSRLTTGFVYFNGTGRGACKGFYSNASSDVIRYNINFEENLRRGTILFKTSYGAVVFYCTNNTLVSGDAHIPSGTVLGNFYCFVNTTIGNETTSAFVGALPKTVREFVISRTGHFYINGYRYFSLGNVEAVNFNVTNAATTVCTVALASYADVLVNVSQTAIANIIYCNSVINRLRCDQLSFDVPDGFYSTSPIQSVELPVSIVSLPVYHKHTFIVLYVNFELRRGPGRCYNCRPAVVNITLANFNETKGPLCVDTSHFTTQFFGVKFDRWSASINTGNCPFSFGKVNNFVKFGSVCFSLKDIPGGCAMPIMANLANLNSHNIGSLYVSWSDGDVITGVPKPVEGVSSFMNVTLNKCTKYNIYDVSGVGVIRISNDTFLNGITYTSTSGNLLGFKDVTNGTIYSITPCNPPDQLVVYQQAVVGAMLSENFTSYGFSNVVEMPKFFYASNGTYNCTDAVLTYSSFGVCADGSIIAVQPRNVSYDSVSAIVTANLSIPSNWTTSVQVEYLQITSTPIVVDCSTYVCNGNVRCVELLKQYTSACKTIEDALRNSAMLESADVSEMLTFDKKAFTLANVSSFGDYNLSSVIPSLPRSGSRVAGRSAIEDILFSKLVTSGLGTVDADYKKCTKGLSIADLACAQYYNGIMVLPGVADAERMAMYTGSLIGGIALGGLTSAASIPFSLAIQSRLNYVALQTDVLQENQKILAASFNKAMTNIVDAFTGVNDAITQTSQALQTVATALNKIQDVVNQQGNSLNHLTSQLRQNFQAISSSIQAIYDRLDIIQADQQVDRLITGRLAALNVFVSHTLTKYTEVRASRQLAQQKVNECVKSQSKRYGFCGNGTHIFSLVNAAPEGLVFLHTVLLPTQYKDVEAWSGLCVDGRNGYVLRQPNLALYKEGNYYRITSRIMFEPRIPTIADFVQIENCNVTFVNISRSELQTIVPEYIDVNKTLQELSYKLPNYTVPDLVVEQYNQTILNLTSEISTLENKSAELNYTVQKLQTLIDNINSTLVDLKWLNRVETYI

[2] = target: T2, HCoV-NL63 trimeric S protein (amino acids 22-1293) with T4 foldon, histidine tag and strep-tag (HCoV-NL63, UniProt Q6Q1S2 23-1293); assay: as above
T2 sequence: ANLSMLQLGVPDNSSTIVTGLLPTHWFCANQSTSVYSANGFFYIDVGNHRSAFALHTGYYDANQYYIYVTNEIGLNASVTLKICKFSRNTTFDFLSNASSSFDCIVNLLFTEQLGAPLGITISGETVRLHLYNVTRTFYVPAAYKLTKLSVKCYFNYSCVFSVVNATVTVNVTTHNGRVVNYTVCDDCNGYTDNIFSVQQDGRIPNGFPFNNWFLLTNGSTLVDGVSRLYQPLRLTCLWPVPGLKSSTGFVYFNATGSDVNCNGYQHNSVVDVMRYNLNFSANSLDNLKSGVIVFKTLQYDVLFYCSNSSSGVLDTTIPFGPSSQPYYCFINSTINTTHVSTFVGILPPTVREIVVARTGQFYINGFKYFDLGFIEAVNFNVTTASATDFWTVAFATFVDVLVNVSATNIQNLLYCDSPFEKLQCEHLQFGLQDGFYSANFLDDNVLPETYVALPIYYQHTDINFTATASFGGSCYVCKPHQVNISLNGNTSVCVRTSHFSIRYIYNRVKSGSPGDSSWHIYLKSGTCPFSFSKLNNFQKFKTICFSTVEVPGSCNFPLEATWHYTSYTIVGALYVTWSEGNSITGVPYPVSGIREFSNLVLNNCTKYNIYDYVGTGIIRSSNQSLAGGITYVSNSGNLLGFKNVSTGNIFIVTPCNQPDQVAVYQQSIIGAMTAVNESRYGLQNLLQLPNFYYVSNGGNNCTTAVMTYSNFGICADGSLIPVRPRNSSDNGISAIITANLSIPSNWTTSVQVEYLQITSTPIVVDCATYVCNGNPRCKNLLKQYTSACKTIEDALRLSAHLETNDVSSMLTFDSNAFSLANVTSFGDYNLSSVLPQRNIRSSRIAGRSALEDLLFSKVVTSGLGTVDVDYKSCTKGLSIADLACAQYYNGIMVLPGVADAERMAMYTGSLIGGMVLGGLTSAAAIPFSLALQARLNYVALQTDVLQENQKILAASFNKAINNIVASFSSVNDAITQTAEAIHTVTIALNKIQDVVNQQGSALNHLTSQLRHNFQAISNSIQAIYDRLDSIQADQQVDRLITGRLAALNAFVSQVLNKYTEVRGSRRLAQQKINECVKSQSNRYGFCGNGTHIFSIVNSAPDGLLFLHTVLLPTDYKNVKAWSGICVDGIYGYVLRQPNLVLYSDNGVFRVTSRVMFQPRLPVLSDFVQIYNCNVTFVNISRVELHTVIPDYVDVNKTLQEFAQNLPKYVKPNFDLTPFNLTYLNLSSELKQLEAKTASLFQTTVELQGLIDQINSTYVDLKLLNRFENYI

B1: NT-108 (recombinant human IgG1/kappa antibody) (antibody, V domains shown)
VH: EVQLQQSGPGLVKPSQTLSLTCSISGDSVSSNSAAWNWIRQSPSRGLEWLGRTYYRSKWYNDYAGTVKSRIAINPDTSKNQFSLHLNSVTPEDTAVYFCARVISVAGYAFDIWGQGTMVTVSS
VL: EIVLTQSPGTLSLSPGERATLSCRASQSVSSTFLAWYQQKPGQAPRLLIYGASYMATGIPDRFSGSGSGTDFTLTISRLEPEDFAVYYCQQYGSSLTFGGGTKLEIK
**Q.** Does B1 bind [1]?
**A.** no binding (tested: 1000 ng/ml)

**Q.** Does B1 bind [2]?
**A.** no binding (tested: 1000 ng/ml)
